Assay results published in article PMC2580030 (PLoS ONE, 2008).
Ends that are not written are not given here.

Target: recombinant soluble empty (peptide free) HLA-DR1 (human)
Assay: fluorescence polarisation
Conditions: both partners purified

B1: FAM-CLIP peptide (residues 87-101) (peptide)
peptide: {FAM}-PVSKMRMATPLLMQA
B1 was tested, and the t1/2 was about 1.33 h.
